According to publication PMC8809517, “Cofactor-independent RNA editing by a synthetic S-type PPR protein”:
Residue numbers refer to the chain shown, from its start.

T1: GFP-9S library array, motif 4 ND N98H;D124F (synthetic construct, N98H;D124F)
T1 chain: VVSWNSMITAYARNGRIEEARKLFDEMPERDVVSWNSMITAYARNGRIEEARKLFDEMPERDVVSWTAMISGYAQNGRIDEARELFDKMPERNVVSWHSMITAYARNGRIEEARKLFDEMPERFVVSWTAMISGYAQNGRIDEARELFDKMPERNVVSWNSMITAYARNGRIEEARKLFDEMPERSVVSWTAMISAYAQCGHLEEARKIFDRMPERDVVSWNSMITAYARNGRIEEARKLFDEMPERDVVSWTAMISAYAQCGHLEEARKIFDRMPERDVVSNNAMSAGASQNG

T2: GFP-9S library array, motif 4 ND N98W;D124P (synthetic construct, N98W;D124P)
T2 chain: T1 chain with H98W, F124P

T3: GFP-9S library array, motif 4 ND N98K;D124S (synthetic construct, N98K;D124S)
T3 chain: T1 chain with H98K, F124S

T4: GFP-9S library array, motif 4 ND N98G;D124V (synthetic construct, N98G;D124V)
T4 chain: T1 chain with H98G, F124V

T5: GFP-9S library array, motif 4 ND N98I;D124P (synthetic construct, N98I;D124P)
T5 chain: T1 chain with H98I, F124P


Key:
Assay in all cases: high-throughput RNA pulldown from lysate on Ni-NTA beads; HRP: 50 mM Tris pH 8, 150 mM NaCl, 1 mM beta-mercaptoethanol, 50 ug/ml BSA, 3 ug/ml yeast RNA, 0.5% heparin; ITC and FP: Tris pH 8, 200 mM KCl, 5% glycerol; MST: 50 mM Tris pH 8, 200 mM NaCl, 1 mM DTT, BSA, heparin, 0.05% Tween 20
Details in all cases: tags: N-terminal His-eGFP
[1] = biological target: T1, GFP-9S library array, motif 4 ND …
[2] = biological target: T2, GFP-9S library array, motif 4 ND …
[3] = biological target: T3, GFP-9S library array, motif 4 ND …
[4] = biological target: T4, GFP-9S library array, motif 4 ND …
[5] = biological target: T5, GFP-9S library array, motif 4 ND …

| Binder | Kd ([1]; label: 5' Cy5) [nM] | Kd ([2]; label: 5' Cy5) [nM] | Kd ([3]; label: 5' Cy5) [nM] | Kd ([4]; label: 5' Cy5) [nM] | Kd ([5]; label: 5' Cy5) [nM] | Kd ([1]; label: 5' IRDye 800CW) [nM] | Kd ([2]; label: 5' IRDye 800CW) [nM] | Kd ([3]; label: 5' IRDye 800CW) [nM] | Kd ([4]; label: 5' IRDye 800CW) [nM] | Kd ([5]; label: 5' IRDye 800CW) [nM] |
| --- | --- | --- | --- | --- | --- | --- | --- | --- | --- | --- |
| AUUACACGUGA (ssRNA) [Cy5-rpoA] | 140 | 230 | 67.8 | 119 | 132 | – | – | – | – | – |
| AUUAAACGUGA (ssRNA) [IR-rpoA-A] | – | – | – | – | – | 320 | 579 | 120 | 313 | 266 |
| AUUAGACGUGA (ssRNA) [Cy5-rpoA-G] | 134 | 215 | 89.3 | 118 | 112 | – | – | – | – | – |
| AUUAUACGUGA (ssRNA) [IR-rpoA-U] | – | – | – | – | – | 204 | 526 | 40.8 | 234 | 269 |
